The target of series [1] is T1, scMenB (Synechocystis sp. PCC 6803, UniProt P73495).
T1 construct: gene menB; recombinant, purified to homogeneity; homohexamer
T1 sequence (P73495 1-275): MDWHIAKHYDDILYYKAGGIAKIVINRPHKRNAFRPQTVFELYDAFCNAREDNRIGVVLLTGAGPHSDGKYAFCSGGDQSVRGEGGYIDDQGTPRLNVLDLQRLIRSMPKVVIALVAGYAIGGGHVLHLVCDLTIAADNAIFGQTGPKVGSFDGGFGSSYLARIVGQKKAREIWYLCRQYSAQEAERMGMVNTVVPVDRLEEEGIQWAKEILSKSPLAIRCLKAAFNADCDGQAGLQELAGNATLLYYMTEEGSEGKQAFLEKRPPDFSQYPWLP
In words: X-ray crystal structure, […] Å. The format is binding. The following applies: co-crystal, pH 5.70; active site, product analog; chloride at the bicarbonate site.

Another series deals with T2, ecMenB (Escherichia coli, UniProt P0ABU0).
T2 construct: gene menB; recombinant; homohexamer, active site formed by two subunits across the trimer-trimer interface
The series can be described thus: X-ray crystal structure, […] Å. It counts as binding. As to conditions: co-crystal, pH 5.5; active site, product analog; chloride at the bicarbonate site.

The target in series [2] is T1, scMenB. The series can be described thus: X-ray crystal structure, […] Å. The format is binding. The following applies: pH 6.0.
Series [3] deals with the molecule itself. In words: crystal structure; scMenB (5 mg/ml) co-crystallised with 5 mM HNA-CoA; 0.15 M ammonium acetate, 0.3 M ammonium sulfate, 16% PEG 3350, 100 mM Bis-Tris pH 5.70; 2.35 A.
Substrate in the series “purified protein”: CC(C)(COP(=O)(O)OP(=O)(O)OC[C@H]1O[C@@H](n2cnc3c(N)ncnc32)[C@H](O)[C@@H]1OP(=O)(O)O)[C@@H](O)C(=O)NCCC(=O)NCCSC(=O)CCC(=O)c1ccccc1C(=O)O
In words: purified protein. It counts as biochemical, Escherichia coli. The following applies: 200 mM phosphate pH 7.0, 20 mM NaHCO3, OSB-CoA made in situ from SHCHC with MenC and MenE.

Series [4] deals with the molecule itself. In words: crystal structure; ecMenB co-crystallised with HNA-CoA; hanging drop, 294 K; 200 mM (NH4)2SO4, 23% PEG 3,350, 100 mM Bis-Tris pH 5.5; protein 10 mg/ml with 10 mM NaHCO3, 10 mM HNA-CoA, 20 mM KCl; 1.84 A.

The record followed here is PMC3637252, “Structural Basis of the Induced-Fit Mechanism of 1,4-Dihydroxy-2-Naphthoyl Coenzyme A Synthase from the Crotonase Fold Superfamily” (PLoS ONE, 2013).

The stoichiometry N is a count of units in the complex or per binding partner. For orientation: Km means the substrate concentration at which the rate is half of its maximum. As a reminder, the kcat is the maximal rate divided by the concentration of active sites. For orientation: kcat/Km means the turnover number divided by the Michaelis constant.

For `CC(C)(COP(=O)(O)OP(=O)(O)OC[C@H]1O[C@@H](n2cnc3c(N)ncnc32)[C@H](O)[C@@H]1OP(=O)(O)O)[C@@H](O)C(=O)NCCC(=O)NCCSC(=O)c1ccc2ccccc2c1O` [1-hydroxy-2-naphthoyl-CoA], at scMenB [1], the “X-ray crystal structure, 2.35 Å” value is “structures of the yellowish scMenB: HNA-CoA and colorless scMenB: SA-CoA crystals were also solved”. The “X-ray crystal structure, 1.84 Å” value on ecMenB is listed as “The ecMenB:HNA-CoA complex structure was solved by molecular replacement”.
As to `O=C(O)O` [bicarbonate], on scMenB [2] (ternary complex with SA-CoA, bicarbonate site), the “X-ray crystal structure, 2.00 Å” value is “a bicarbonate ion is found in the place of the chloride ion”.
Take `CC(C)(COP(=O)(O)OP(=O)(O)OC[C@H]1O[C@@H](n2cnc3c(N)ncnc32)[C@H](O)[C@@H]1OP(=O)(O)O)[C@@H](O)C(=O)NCCC(=O)NCCSC(=O)c1ccccc1O` [salicyloyl-CoA]: on scMenB [2] (co-crystal, active site, product analog, bicarbonate bound), the “X-ray crystal structure, 2.00 Å” value was “structures of the yellowish scMenB: HNA-CoA and colorless scMenB: SA-CoA crystals were also solved”.

B1: 1,4-dihydroxy-2-naphthoyl coenzyme A (DHNA-CoA) synthase from Synechocystis sp. PCC 6803 (enzyme)
chain: MDWHIAKHYDDILYYKAGGIAKIVINRPHKRNAFRPQTVFELYDAFCNAREDNRIGVVLLTGAGPHSDGKYAFCSGGDQSVRGEGGYIDDQGTPRLNVLDLQRLIRSMPKVVIALVAGYAIGGGHVLHLVCDLTIAADNAIFGQTGPKVGSFDGGFGSSYLARIVGQKKAREIWYLCRQYSAQEAERMGMVNTVVPVDRLEEEGIQWAKEILSKSPLAIRCLKAAFNADCDGQAGLQELAGNATLLYYMTEEGSEGKQAFLEKRPPDFSQYPWLP
notes: DHNA-CoA synthase MenB, Synechocystis sp; PCC 6803; wild type; Crystallised with the small-molecule product analogs HNA-CoA or SA-CoA; also called scMenB; MenB
As to B1, the “stoichiometry N” value in series [3] stood at 6.

B2: ecMenB (Escherichia coli K-12; F270A) (protein)
chain: MIYPDEAMLYAPVEWHDCSEGFEDIRYEKSTDGIAKITINRPQVRNAFRPLTVKEMIQALADARYDDNIGVIILTGAGDKAFCSGGDQKVRGDYGGYKDDSGVHHLNVLDFQRQIRTCPKPVVAMVAGYSIGGGHVLHMMCDLTIAADNAIFGQTGPKVGSFDGGWGASYMARIVGQKKAREIWFLCRQYDAKQALDMGLVNTVVPLADLEKETVRWCREMLQNSPMALRCLKAALNADCDGQAGLQELAGNATMLFYMTEEGQEGRNAANQKRQPDFSKFKRNP
notes: recombinant; homohexamer, active site formed by two subunits across the trimer-trimer interface
Turning to B2, in the series “purified protein”, the Km stood at 19.7 ± 3.9 µM, the kcat was found to be 0.0035 ± 0.000167 s⁻¹ and the kcat/Km was 180 ± 10 M⁻¹ s⁻¹.

B3: 1,4-dihydroxy-2-naphthoyl coenzyme A (DHNA-CoA) synthase from Escherichia coli (enzyme)
chain: MIYPDEAMLYAPVEWHDCSEGFEDIRYEKSTDGIAKITINRPQVRNAFRPLTVKEMIQALADARYDDNIGVIILTGAGDKAFCSGGDQKVRGDYGGYKDDSGVHHLNVLDFQRQIRTCPKPVVAMVAGYSIGGGHVLHMMCDLTIAADNAIFGQTGPKVGSFDGGWGASYMARIVGQKKAREIWFLCRQYDAKQALDMGLVNTVVPLADLEKETVRWCREMLQNSPMALRCLKAALNADCDGQAGLQELAGNATMLFYMTEEGQEGRNAFNQKRQPDFSKFKRNP
notes: DHNA-CoA synthase MenB, Escherichia coli; Crystallised with the small-molecule product analog HNA-CoA; also called ecMenB; MenB
For the molecule B3, in series [4], the “stoichiometry N” value came to 6.

B4: ecMenB (Escherichia coli K-12; R267A) (protein)
chain: MIYPDEAMLYAPVEWHDCSEGFEDIRYEKSTDGIAKITINRPQVRNAFRPLTVKEMIQALADARYDDNIGVIILTGAGDKAFCSGGDQKVRGDYGGYKDDSGVHHLNVLDFQRQIRTCPKPVVAMVAGYSIGGGHVLHMMCDLTIAADNAIFGQTGPKVGSFDGGWGASYMARIVGQKKAREIWFLCRQYDAKQALDMGLVNTVVPLADLEKETVRWCREMLQNSPMALRCLKAALNADCDGQAGLQELAGNATMLFYMTEEGQEGANAFNQKRQPDFSKFKRNP
notes: as for B2
As to B4, in the series “purified protein”, the Km was found to be 16.6 ± 1.0 µM, the kcat was 0.00267 ± 0.000167 s⁻¹ and the kcat/Km amounted to 160 ± 20 M⁻¹ s⁻¹.

B5: ecMenB (Escherichia coli K-12; K89A) (protein)
chain: MIYPDEAMLYAPVEWHDCSEGFEDIRYEKSTDGIAKITINRPQVRNAFRPLTVKEMIQALADARYDDNIGVIILTGAGDKAFCSGGDQAVRGDYGGYKDDSGVHHLNVLDFQRQIRTCPKPVVAMVAGYSIGGGHVLHMMCDLTIAADNAIFGQTGPKVGSFDGGWGASYMARIVGQKKAREIWFLCRQYDAKQALDMGLVNTVVPLADLEKETVRWCREMLQNSPMALRCLKAALNADCDGQAGLQELAGNATMLFYMTEEGQEGRNAFNQKRQPDFSKFKRNP
notes: as for B2
Take B5: in “purified protein”, the Km was found to be 43.3 ± 2.0 µM, the kcat amounted to 0.0383 ± 0.00133 s⁻¹ and the kcat/Km worked out at 890 ± 30 M⁻¹ s⁻¹.
